What was measured:
[1] = target: χ K124A (E. coli, UniProt P28905 1-147, K124A); assay: cross-linking
[2] = target: χ subunit of DNA polymerase III of E. coli, wild-type (E. coli, UniProt P28905 1-147); assay: cross-linking

Question: Does WMDFDDDIPF [SSB-Carb, peptide containing the last nine amino acids of EcoSSB] bind [1]?
Answer: Result: binds

Question: Does WMDFDDDIPF [SSB-Carb, peptide containing the last nine amino acids of EcoSSB] bind [2]?
Answer: Result: binds

— article PMC3045619 (Nucleic Acids Research, 2010)
